Here are results for two molecules from paper PMC8595662 (Nature Communications, 2021).

The target in assay [1] is T1, EBV gH/gL (gH 19-679 linked to gL 24-137 by (G4S)3) (Epstein-Barr virus (human …)).
T1 construct: also called gH/gL WT; source: 293F, transfected, purified (Ni-NTA, SEC); not shown: HIS Tag, C-terminal, kept
Nature of the assay: SPR. Particulars: both partners purified.

The target of assay [2] is T2, EBV gH/gL on the surface of CHO-K1 effector cells (Epstein-Barr virus, UniProt P03231;P03212).
T2 construct: also called gH/gL and gB fusion machinery
Nature of the assay: flow cytometry on cells. Particulars: one partner purified.

B1: AMMO1 (antibody, V domains shown)
VH: QVQLVQSGADVKKPGASVKVSCKASGYTFIHFGISWVRQAPGQGLEWMGWIDTNNGNTNYAQSLQGRVTMTTDTSTGTAYMELRSLSTDDTAVYFCARALEMGHRSGFPFDYWGQGVLVTVSP
VL: SYELTQPPSVSVAPGQRATITCGGHNIGAKNVHWYQQKPGQAPVLVIQYDSDRPSGIPERFSGSNSGSTATLTISRVEAGDEADYYCQVWDSGRGHPLYVFGGGTKVTVL
The koff is the rate constant with which the complex falls apart. A lower koff goes with slow dissociation. As a reminder, the kon is the second-order rate constant of association. A lower kon goes with slower complex formation. Consider B1, for which, in assay [1], the koff came to 8.5e-05 s⁻¹ and the kon worked out at 577000 M⁻¹ s⁻¹.

B2: AMMO1, human gH/gL-specific neutralizing antibody (recombinant IgG1) (antibody, V domains shown)
VH: B1 VH
VL: B1 VL
Turning to B2, the binding result in assay [2] is “binds”.
